Assay: label from the status in PepcDB records
With “MSPPRDLPTLGRNTIPIPEFEMTRRNSKPGVRLLSVLVALGMAAPALAQAVTEPVTQPAIYPTPVSITLDGATIALGRSVVLVVAPGADKATVALVRSILSSAGVTKMATATRLPATLDRPHIVLGTGDAAVVRDALARSKARQDTHKEGYTLASVALDGGSLITLAGHDDDGLFHAAQTLRQLVERPAIPTLTIHDYPAMPIRGTIEGFYGAPWSMSDRSKHIDFLARTKANTFIYSPKDDPYARDRWRAPYPKATLKALGQLAATAKRNHVDFVYAISPGPTVCFSDPADAKALLRKFDAFRALGVRSFYVALDDIEYTKWNCERDKTAFGESGAQAAGIAQSHLLNLVQADLVARHDATSELIMVPTEYYDAKESPYKEALRKHLDPKIVVQWTGTDVVPPAISIPDARAATKAFGRKTLLWDNYPVNDFETSAGRLLMAPYARREAGLSAELSGIVSNPMNQEVPSRVAVMGLTAFAWNDKDYDAQRTWHAAARDLAGGDARVTAALLIFFDTQHLAPTFGSQPWQEQAPRLKAVLDHVREAIALGDAAARTQAIAELARTADEMAAAPQIIRDSVADKGFAKQSRPWLEAMEVWGGALQKTAAGLDAANRGDTQAPALFAEAAAHAAVAAVVPSIPGATRFDGPVKIADGVLDRFIAQAPRLIAYRVPAVADSAAAK” the protein production was “failed”. In the case of “MSPRSIAMCGRCGIRARHSVAPDCCLSVRQATNKCPAVEHHSHGGRRPCTANGGVAFDRFVMTNRFSPRARSTRIVSKVVWRKRSGRDDENKKTRGEHDMSASVQSALSGLVLAAAVAMPALADGLKDEIAPTGKLRVAIAISPAGGAFWSTRTETGYAGVPVDLGKEMAAQLGVGVEYVVHQNSGQITDAASKGTWDVTWLPKDPERESKMMFGPIYEVADATYIVKAGSNVTSFASLDQPGIKVAAVNATTTMRGAVAHLRNAEVTGYQTYDEIFGLLKSGEIDAFALSRDQLNKMAQKIPGTKVLDETFKKTVTAVAVPLGHSLALTFVTKFMNEATINGTLRKAYDNNGLKDSPIRTE”, the protein production was “failed”. With “MSQAHAAQRPNGAKEPANPTQGGRKAIIAAASANLAIAVTKAIAWALTGASSMLAEAIHSVADTANQVVLMMGGKESHKEADEDHPFGYETARYLSGFIVAIVIFTLGGLFALYEAYHKIGATLGGHPDELLDSQWWWVPLAVVMISLCAEGASLRTALKESSQDREGMTILQYIRKAKAPELPVVMLEDSAAVLGLIFAFLGVGLTLLTHNPIFDGIGSACIGILLVVVAGVLSREMKSLLEGESAAPESRKAVYDALIHSDGVDSVIYMKTVHLGPETILLAAKIAVDPTDSAFEVARIIDNAEASVRAAEPLVGPLFLEPDIRYGDKRIKDGEERPEDQS” the protein production was “failed”. In the case of “MSQALPVRDQGRDQGIFAGTLPPAPPKFKWTRLDTYTWAIIAVFALVTRFTGLSSATASGTPVFDEKHYVPQAWDMVRSWINPITGGIESNPGYGLVVHPPLAKQLEALGEWVFGYTPLGWRIMVAIFGTLTIFAIMAIARRLSGSTMVTFIAGILALADGVLLVSSRFGMLDIFLVFFITAAAWALIRDHQQMHQRLNDLLLTNGQITKDFGPRFGFRWWRFTTGVFLGLALSVKWSGLYYIAFFGLTSVFLDLWLRKRYGVRRYVTGTLKNDVIPALGSLVIIPALLYIWSWRAWFASETSVYRHAKTDGTITEDSILQLFPESIAGWIHYHISVLEFHGSLTTSSGHSHPWDSKPWAWLVSGRPILYFSSTDISCDVGGTCRRMIYLFGTPAIWWLTVPVILWALWSFFARRSRGYVVPLVAFAAGFLPWLAAYDRQMYFFYATALVPFTIIMLALACGELWGRGKMTPTGLTRGSMAVVTYISLVVMMFLAFSPLFYGFVIPDYVYESLMWFPSWR”, the protein production was “not failed”. In the case of “MSQELKNKVQFLAKELNQLVNILYEESKKQTPLTLWLLCKNTFVYLYRTVKTVRGVAGVLLVLVPGSLMAYTTDAFRAIGELPWTSITVLLGGMSFFLFAYLRHLVLDEMSRPGSDLFHIQVYEKRKPDEYMSLIALAKERDYVESIAADIEQVTSTPSLPNLLELLKEKEQDIEEKDRVIEDLLEIVEDNEEHTLMFKEKYEILLDFVFQLKSKLNLLVHDQFSLDSIDFGSDYSLYKVGEEGLEFVDSYGVNKAEMEDFIPFTEKGNPYILAIERDYKDPLKVGDLISWKRTLQDGSQWVLSLHLNENSREKLNDVTESGKLNVTITQELLWICCELLNKFSPNPTKKGEE”, the protein production was “failed”. In the case of “MSQFPLISVMTFLPLLGVVLLFFVPKQSHSVHRMLALLVSLVTFVVSIPLVTGFQSNADFQFVEKMPWIAAGPFQMNYHVAIDGISLWLVLLTTFIMPIAILSTWTAVEEKVKEYMICLLLLEVGMLGAFVSLDLFLFYIFWEVMLIPMYFIIGIWGGKNKIYAAVKFFIYTMVGSMLMLVALVTLYFKAGAGDFNVLRFYEVTLDPATQVWMFLAFALAFAIKVPMFPLHTWLPDAHTEAPTAGSVILAAVLLKMGTYGFVRFAMPLFPDATDKFTPLIATLSVIGIIYAALVAMVQEDVKKLVAYSSVAHLGYVMLGVFALNLQGLSGGMLQMLNHGVSTGALFLIVGFIYERRHTRLITDFGGLAKQMPVFATIFMIVTLSSIGLPGTNGFVGEFLVLLGAFESELRWYAVIGTSGVILAAVYMLWMFQRVMFGELTNPKNQTLCDLNAREVGIMLPLLVLIFVMGVYPTPFIEKMSPSLEKLIVHVKTKQQGAVAQVETVPAAPQVMPAAAVVPAEHK”, the protein production was “failed”. For “MSQFPNRAALWLNKLAPDAPLMSGLCPSVQVTDGQINGESVRFIAVVPDANNHYPRAAGGEVGLLEGWTLAKVVNETIAADADRPVKRPIVAVIDVPSQAYGRREEAFGIHQALAGAAGAYAKARLAGHPVIGLIVGKAMSGAFLAHGYQANRLIAFNDSGVLVHAMGKASAARITLRTVEALEKLAATIPPMAYDVSNYATLGLLSALLDISNPDAPDEGDLSLVSRTLRDAIADARTDTSLKCRLGAENRRSSQLVRDRMRASW”, the protein production was “failed”. For “MSQFQEVRPVAQALYPTHPSTKDALEEARLLLPGGTHHDFMRALMGYHNTLVKVMEEQC”, the protein production was “not failed”. In the case of “MSQIFVVFSSDPEILKEIVREIKRQGVRVVLLYSDQDEKRRRERLEEFEKQGVDVRTVEDKEDFRENIREIWERYPQLDVVVIVTTDDKEWIKDFIEEAKERGVEVFVVYNNKDDDRRKEAQQEFRSDGVDVRTVSDKEELIEQVRRFVRKVGSLEHHHHHH”, the protein production was “not failed”. With “MSQILIGVGWVLFTVLLYQLSKKIYKLFPTPFTIPMLVATGLMAFLFIVLDIPYQHYMESGGGWIAKLLGPGVVAFAIPLYKQRHVLQKYVVPIAGGVLVGTTVAIASDFAIASLMGTDKSLILSSLPKSVTMPVAMSVSEQVGGVPSLTAAFVVIAGITGTITGPLLLKWSRVTNSVGKGIGFGCASHIMGVMRAMKNNEHEGVIGSVTMTLTAILTCLLGPLFAMMFM” the protein production was “failed”. With “MSQKKTSSRSSSVDDPATQYAKEVHSGERVAGPDIRNACARHLRDLEEGPKRGLTWDLDAANKAIRFYRTVLKLNGGEFEGLPFELLPWQKFIVGSIFGWKSSDGYRRFRVVYVESGKGSGKSPLAAGVGLTGLIADNEARAEIYAAATKKDQAMILFRDAVAMVQQSPELTKRLVCSGTGQNIWNLAYLKSGSFFRPISSDDGQSGPRPHMALIDEVHEHKTNMVVEMMRAGTKSRKQALIFMITNSGSNKRGPCWEYHEYGSRVASGALTDDGFFAYICSLDEGDDPIQDESCWFKSNPSLQDADLPGMKYLREQVTEARGMPSKEAMVRRLNFCEWTGAESPWISWDVWSQAEERVPMSLLRNRPSVGGLDLSSTTDLTSFVLLFYPTYEDPHWRLLPYFWIPDHELDKREARDKVPYAAWIKSRDLETTPGRAISKLHVLRRLQTICDFFQVDKIAFDRWRIEDMRQLMSEYDITLPELVEFGQGFKDMGPAVDEFERRLLGMIEQQPEEEGGAAEFFDDALPAEAVESLRHDGNPVMTWCAGNAVIVSDPANNRKADKAKATGRIDGIIAAIMATGISGAVSSGSSGSSIYDEGVGV” the protein production was “failed”. With “MSQLVTHAFDDATALSFDGRQFHGQVKAEYYNMVGPFGGITAATMLKAAMSHPERLGQPLALTVNFAAPAKVAPFVIEAVPVRTNRSTQHFTLTMMQDGEVVTTATAVFGIRRESWSHTEAVMPDVPPPADVPRFVAPAPLPWMQWYHVRLIRGSAFDEVQDATTYQWMRDDPPRPLDHAALAALCDTFVPRVYVKLKRPVPIGTVTFTVYFLADPETIFRQGTNELLGVARATGFSHGYFDQIGEVWSQDGDLLATTTQLVYMKAPVSGSS” the protein production was “not failed”. With “MSQNWNADYATLAKRGFMLGAGLFLLGIAGEVAGSAVLGTLPAWGDTLLVDMEMLGILVGLLSPLVFGVVMPLTE” the protein production was “failed”. With “MSQQVIIFDTTLRDGEQALQASLSVKEKLQIALALERMGVDVMEVGFPVSSPGDFESVQTIARQVKNSRVCALARCVEKDIDVAAESLKVAEAFRIHTFIATSPMHIATKLRSTLDEVIERAIYMVKRARNYTDDVEFSCEDAGRTPIADLARVVEAAINAGATTINIPDTVGYTMPFEFAGIISGLYERVPNIDKAIISVHTHDDLGLAVGNSLAAVHAGARQVEGAMNGIGERAGNCSLEEVIMAIKVRKDILNVHTAINHQEIWRTSQLVSQICNMPIPANKAIVGSGAFAHSSGIHQDGVLKNRENYEIMTPESIGLNQIQLNLTSRSGRAAVKHRMDEMGYKESEYNLDNLYDAFLKLADKKGQVFDYDLEALAFIGKQQEEPEHFRLDYFSVQSGSNDIATAAVKLACGEEVKAEAANGNGPVDAVYQAINRITDYNVELVKYSLTAKGHGKDALGQVDIVANYNGRRFHGVGLATDIVESSAKAMVHVLNNIWRATEVEKELQRKAQHNENNKETV” the protein production was “not failed”. In the case of “MSQSNSNHSPQEQWQQAVLTYARDINRYVETGNRDGWKGLKEPHLPDTEHLLPDWQAALEASNQEPYDAARRQAFRQEWPPAHFPLSPRLESQGRMIPTLALLPDGSLLARIGAPYEAGEVVHIDDARIQPLEQVEGFGMCPQRRYFAWARADGIQLTDGWNGPEVASFAWPDPHANLPAGVALEDTGRPRPSSLIPFPDGRRVLLVSSDGIFVLQAEGATRLLPSLEDLQQELADGVAPEDLGIGLSMEHGAVSPDGQWIAVGEQSSSHLVFDARLQRVAQIGPASEYPHFAHFNQRGDRLLLNACHFYGGASVGVAVADLPGLSTDFYSDDARTPVLQEGARVYAAASRGDEFIIGDAYGYLRAFSENGEERWQHYIGSTLTAMDISPDGKTLVAATYAGIIVKLDLDAGRPDWQIGTGEHLEVQRWLFWKDFAKPLLW”, the protein production was “failed”. For “MSQSPILFFQHGMGESNQNMQILAGRVASENAYVVVPNLNLLTTFLNLDPLIEVVERSASETLNDFPQSTFSVVGFSMGGILWVEVLSRNPSWLERLDALVLIGSPIQGASLARTVDLFGWGIGIAQELGRNRQYLAEKITQKIPTLVIAGSVNGGGDGVIPIESTRLNGTHFFTRNNVKHQDLPIDLIIGEKVKSFLLHPYLIPS”, the protein production was “failed”. For “MSQVASLLIALPLISAFFVPVLKQIKKSLIFPYLTLITLLQTGIAGWVFYEVYTTGKPILIYAGGWRPPVGINLYIGPFAALFILIIAIVSFLTSLFSMRMVKVEPIDKYAMLFLLLMLGATGMIATGDIFNLFVFMEITAITAYALTAYNKTGEAAEASMKYMILGGIGSSFFLIGVALIYGVTGTLNMAQLAEFASAGKIMPVVAQVGLSLIIFGLAVEAELFPLNAWAPDAYQAAPHPITVMFSAFVVKAGLYAMARILYLLQKVNGWDSVLKLLLIMATLTVIFAELSALRQKDVKRMIAYSSIGQVGLIALAFSLGTQAGVDAGVFHMLNHAIVKTMMFLGVGYVGVMVGGTRIEDFRGLGKRMPLTALSLSVGAISTVGVPLFNVFWSKFRIIVATIQAGFVWPAVLVLFASVVEAVYYFRLLHVMWFAGEGERIKEGWIVVFLLLLALIIVGIGIYPTPVWEIVKRAGSDIFAVKVYINNVPLLGVVQ”, the protein production was “failed”. For “MSQYVVCALYKFVELNNYQELREPLLALMEKHHIRGTLLLAGEGINGTVASDRAGIDTLLEWLNTEPRLTGTVYKESYSETQPFNRTKVKLKKEIVTLGVEGIDPRHVVGTYVKPQDWNDLIADPEVFVVDTRNDYEIEIGTFKGAVNPNTETFREFPDYVKENMDPAKHKKVAMFCTGGIRCEKSTAYMKEQGFEEVYHLEGGILKYLEEVPQEESMWEGDCYVFDGRVAVNHQLEKADYDLCNACRLPITDEDKQSELFEQGVSCPKCHGKHSEEQVERFREREKQVSLANQRGEQHVGGESAKQRAQRREAKLAKKAAQRKQA”, the protein production was “failed”.
